Results on three molecules are retold here after US20130202646A1, “COMPOSITIONS AND METHODS FOR MODULATING AUTOPHAGY” (SAN DIEGO STATE UNIVERSITY (SDSU) FOUNDATION, priority 2010, published 2013).

Series [1] has as its system adult rat cardiomyocytes. Description: Autophagy (GFP-LC3 puncta) in adult rat cardiomyocytes. Format: cell-based. To be noted: Tat protein 30 min before CCPA.
Series [2] deals with isolated perfused rat hearts. Description: Langendorff global ischemia/reperfusion injury in isolated perfused rat hearts (CK release, TTC infarct size, hemodynamics).
The test system of series [3] is HL-1 cells. Nature of the series: Autophagy scored by intracellular distribution of GFP-LC3 (fluorescence microscopy) in HL-1 cells. Format: cell-based, murine. To be noted: for modulation of autophagy: HL-1 cells transfected with LC3GFP, treated with Tat protein (FIG. 18).
Series [4] has as its system adult rat cardiomyocytes.
The test system of series [5] is isolated perfused rat hearts. Description: Autophagy in isolated perfused rat hearts (LC3-II/LC3-I Western blot, cadaverine dye binding). To be noted: Tat protein approximately 200 nM before SUL. For orientation: In western blotting, separated proteins are transferred to a membrane and probed.
For series [6], the system named is HL-1 cells. Nature of the series: Cell death by LDH release after simulated ischemia/reperfusion (sI/R) in HL-1 cells. The format is cell-based, murine. The method, then: Cells of the murine atrial-derived cardiac cell line HL-1^16 were plated in gelatin/fibronectin-coated culture vessels and maintained in Claycomb medium^16 (JRH Biosciences, Lenexa, Kans.) supplemented with 10% fetal bovine serum, 0.1 mm norepinephrine, 2 mm […], 100 U·mL^-1 penicillin, 100 U·mL^-1 streptomycin, and 0.25 μg·mL^-1 amphotericin B. Cells were plated in 14-mm diameter glass bottom microwell dishes (MatTek), and ischemia was introduced by a buffer exchange to ischemia-mimetic solution (in mM: 20deoxyglucose, 125 NaCl, 8 KCl, 1.2 KH2PO4, 1.25 MgSO4, 1.2 CaCl2, 6.25 NaHCO2, 5 sodium lactate, 20 HEPES, pH 6.6) and placing the dishes in hypoxic pouches (GasPakTM EZ, BD Biosciences) equilibrated with 95% N2, 5% CO2. After 2 hr of simulated ischemia, reperfusion was initiated by a buffer exchange to normoxic MKH buffer and incubation at 95% room air, 5% CO2. […] Protein content and LDH activity were determined according to El-Ani et al.^20. Briefly, 25 μl supernatants from 35 mm dishes were transferred into wells of a 96-well plate, and the LDH activities were determined with an LDH-L kit (Sigma), according to the manufacturer. The product of the enzyme was measured spectrophotometrically at 30° C. at a wavelength of 340 nm as described previously^21. […]

For series [7], the system named is HL-1 cells. Nature of the series: Protection in cell culture by recombinant Tat-Beclin1. Format: cell-based.

B1: Tat-Atg5^K130R: Atg5^K130R expressed as a fusion protein with the protein transduction domain derived from HIV Tat; cell-permeable dominant negative inhibitor of autophagy (protein)
chain: MRGSHHHHHHGMASMTGGQQMGRDLYDDDDKDRWGSKLGYGRKKRRQRRRGGSTMSGYPYDVPDYAGSMAGTMTDDKDVLRDVWFGRIPTCFTLYQDEITEREAEPYYLLLPRVSYLTLVTDKVKKHFQKVMRQEDVSEIWFEYEGTPLKWHYPIGLLFDLLASSSALPWNITVHFKSFPEKDLLHCPSKDAVEAHFMSCMREADALKHKSQVINEMQKKDHKQLWMGLQNDRFDQFWAINRKLMEYPPEENGFRYIPFRIYQTTTERPFIQKLFRPVAADGQLHTLGDLLREVCPSAVAPEDGEKRSQVMIHGIEPMLETPLQWLSEHLSYPDNFLHISIVPQPTD
modifications: synthetic peptide or nucleic acid
With B1, the effect on autophagy result in the series with adult rat cardiomyocytes [1] is “suppressed autophagy”. Moreover, in series [2] (FIG. 17, 3 hearts per condition), the “effect on protection by sulfaphenazole given at reperfusion (infarct size)” value is reported as “protection is lost”. Moreover, the infarct size in series [2] (absence of SUL, vehicle control 38.5%, p=NS) is 42.0%; in series [2] (pretreatment with Tat-Atg5^K130R, then SUL infusion) it was 30 % of the area at risk. The modulation of autophagy result in the series on HL-1 cells [3] is reported as “inhibits autophagy”. Further, the “effect on protection by CCPA (LDH release)” value with adult rat cardiomyocytes [4] (Tat protein 30 min before CCPA, then simulated ischemia) was “eliminated the protection by CCPA”. In the series with adult rat cardiomyocytes [4] (absence of CCPA, normoxia), the “LDH release under normoxic conditions” value was “did not increase LDH release”. In addition, the “injury from sI/R” value in the series with adult rat cardiomyocytes [4] (absence of CCPA, sI/R) is listed as “nor did it exacerbate injury from sI/R”. For the same molecule, the “effect on autophagy induced by SUL (LC3-II/I ratio, cadaverine dye binding)” value in series [5] was “potently suppressed autophagy induced by SUL”.

B2: Atg5^K130R: dominant negative point mutant of Atg5 delivered by transient transfection in HL-1 cells (protein, UniProt Q9H1Y0 1-275, looked up, variant K130R)
Autophagy protein 5: MTDDKDVLRDVWFGRIPTCFTLYQDEITEREAEPYYLLLPRVSYLTLVTDKVKKHFQKVMRQEDISEIWFEYEGTPLKWHYPIGLLFDLLASSSALPWNITVHFKSFPEKDLLHCPSKDAIEAHFMSCMREADALKHKSQVINEMQKKDHKQLWMGLQNDRFDQFWAINRKLMEYPAEENGFRYIPFRIYQTTTERPFIQKLFRPVAADGQLHTLGDLLKEVCPSAIDPEDGEKKNQVMIHGIEPMLETPLQWLSEHLSYPDNFLHISIIPQPTD
modifications: mCherry fusion
notes: dominant negative point mutant of Atg5 delivered by transient transfection in HL-1 cells
As for B2, the autophagy result in the series on HL-1 cells [3] (transient transfection, co-transfected with GFP-LC3 (FIG. 6)) was “effectively suppressed autophagy”. Moreover, in the series with HL-1 cells [3] (with CCPA 10 min, washout, 20-24 hr later), the “effect on autophagy in the second window of protection” value is “suppressed autophagy in the second window of protection”. Also, the “effect on cytoprotection by CCPA (LDH release)” value in the series on HL-1 cells [6] (inhibitor plus CCPA, then sI/R (2 hr sI, 3 hr R)) is on record as “eliminated the protective effects of CCPA after sI/R”. Further, the “effect on cytoprotection by CCPA in the second window of protection (LDH release)” value in the series on HL-1 cells [6] (with CCPA 10 min, washout, sI/R 20-24 hr later) was “abolished the cytoprotective effect of CCPA”.

B3: Tat-Beclin1: cell-permeable recombinant Tat fusion of rat Beclin 1; stimulant or activator of autophagy (protein)
chain: MRGSHHHHHHGMASMTGGQQMGRDLYDDDDKDRWGSKLGYGRKKRRQRRRGGSTMSGYPYDVPDYAGSMAGTGLEMEGSKASSSTMQVSFVCQRCSQPLKLDTSFKILDRVTIQELTAPLLTTAQAKPGESQEEEANSGEEPFIETRQDGVSRRFIPPARMMSTESANSFTLIGEASDGGTMENLSRRLKVTGDLFDIMSGQTDVDHPLCEECTDTLLDQLDTQLNVTENECQNYKRCLEMLEQMNEGDSEQLQRELKELALEEERLIQELEDVEKNRKVVAENLEKVQAEAERLDQEEAQYQREYSEFKRQQLELDDELKSVENQMRYAQMQLDKLKKTNVFNATFHIWHSGQFGTINNFRLGRLPSAPVEWNEINAAWGQTVLLLHALANKMGLKFQRYRLVPYGNHSYLESLTDKSKELPLYCSGGLRFFWDNKFDHAMVAFLDCVQQFKEEVEKGETRFCLPYRMDVEKGKIEDTGGSGGSYSIKTQFNSEEQWTKALKFMLTNLKWGLAWVSSQFYNK
Take B3: in the series on HL-1 cells [3], the modulation of autophagy result is on record as “stimulates autophagy”. Also, in the series on HL-1 cells [7], the protection entry is listed as “protection in cell culture”.
